# In the Human Domainome abundance scans (Beltran et al. 2025):
# ± gives the uncertainty stated by the source.
# Assay: abundance fitness (aPCA) (normalised: wild type 0, dead -1); higher = more abundant; growth selection in yeast, the domain comes from the species named
# Conditions: Homo sapiens
row,Substance,abundance fitness
1,"BAG family molecular chaperone regulator 3 S14P, O95817",-0.269 ± 0.19
2,"BAG family molecular chaperone regulator 3 V40E, O95817",-0.661 ± 0.18
3,"SAFB-like transcription modulator K20A, Q9NWH9",-0.284 ± 0.039
4,"BAG family molecular chaperone regulator 3 P37E, O95817",0.86 ± 0.092
5,"BAG family molecular chaperone regulator 3 I30D, O95817",-0.389 ± 0.14
6,"SAFB-like transcription modulator L52N, Q9NWH9",-0.385 ± 0.23
7,"SAFB-like transcription modulator V47I, Q9NWH9",0.051 ± 0.066
8,"BAG family molecular chaperone regulator 3 G15K, O95817",1.15 ± 0.12
9,"BAG family molecular chaperone regulator 3 H42K, O95817",-0.942 ± 0.42
10,"SAFB-like transcription modulator L30V, Q9NWH9",-0.295 ± 0.05
11,"BAG family molecular chaperone regulator 3 G25T, O95817",-0.667 ± 0.22
12,"SAFB-like transcription modulator L68M, Q9NWH9",-0.188 ± 0.061
13,"BAG family molecular chaperone regulator 3 R53L, O95817",-0.732 ± 0.09
14,"BAG family molecular chaperone regulator 3 T34Q, O95817",-0.148 ± 0.1
15,"SAFB-like transcription modulator L30A, Q9NWH9",-0.581 ± 0.035
16,"SAFB-like transcription modulator E57D, Q9NWH9",-0.164 ± 0.086
17,"BAG family molecular chaperone regulator 3 R53N, O95817",-0.257 ± 0.44
18,"SAFB-like transcription modulator R51K, Q9NWH9",-0.2 ± 0.065
19,"SAFB-like transcription modulator D24G, Q9NWH9",-0.282 ± 0.03
20,"BAG family molecular chaperone regulator 3 P52L, O95817",-0.741 ± 0.12
21,"BAG family molecular chaperone regulator 3 G17Y, O95817",0.213 ± 0.22
22,"SAFB-like transcription modulator R37L, Q9NWH9",-0.71 ± 0.045
23,"BAG family molecular chaperone regulator 3 N43Q, O95817",-0.435 ± 0.43
24,"BAG family molecular chaperone regulator 3 W49N, O95817",-0.204 ± 0.34

row,Substance,abundance fitness
1,"SAFB-like transcription modulator L39I, Q9NWH9",-0.231 ± 0.074
2,"SAFB-like transcription modulator V47L, Q9NWH9",-0.125 ± 0.038
3,"SAFB-like transcription modulator E33K, Q9NWH9",-0.89 ± 0.18
4,"SAFB-like transcription modulator L25H, Q9NWH9",-0.732 ± 0.16
5,"BAG family molecular chaperone regulator 3 T46L, O95817",-0.53 ± 0.12
6,"SAFB-like transcription modulator E67M, Q9NWH9",-0.308 ± 0.092
7,"SAFB-like transcription modulator Q54P, Q9NWH9",-0.666 ± 0.3
8,"BAG family molecular chaperone regulator 3 G35V, O95817",-0.589 ± 0.16
9,"SAFB-like transcription modulator L52V, Q9NWH9",-0.412 ± 0.077
10,"SAFB-like transcription modulator K45G, Q9NWH9",-0.2 ± 0.066
11,"SAFB-like transcription modulator L30W, Q9NWH9",-0.748 ± 0.098
12,"BAG family molecular chaperone regulator 3 N50K, O95817",-0.176 ± 0.11
13,"SAFB-like transcription modulator N65W, Q9NWH9",-0.339 ± 0.071
14,"SAFB-like transcription modulator D29V, Q9NWH9",-0.717 ± 0.09
15,"SAFB-like transcription modulator I41W, Q9NWH9",-0.195 ± 0.092
16,"SAFB-like transcription modulator I28Q, Q9NWH9",-0.36 ± 0.13
17,"SAFB-like transcription modulator L30R, Q9NWH9",-0.949 ± 0.056
18,"BAG family molecular chaperone regulator 3 D41L, O95817",-1.1 ± 0.17
19,"SAFB-like transcription modulator L39W, Q9NWH9",-0.591 ± 0.084
20,"SAFB-like transcription modulator R26F, Q9NWH9",-0.268 ± 0.065
21,"BAG family molecular chaperone regulator 3 H42P, O95817",-0.788 ± 0.13
22,"BAG family molecular chaperone regulator 3 W26E, O95817",-0.885 ± 0.25
23,"SAFB-like transcription modulator S32N, Q9NWH9",-0.407 ± 0.11
24,"SAFB-like transcription modulator S50L, Q9NWH9",-0.055 ± 0.075
